In assay [1] the target is CUL2^ZYG11B (residues 490–728) (human) (UniProt Q9C0D3). Nature of the assay: ITC; MicroCal iTC200; peptides (0.5–1 mmol/L) in the syringe, CUL2^ZYG11B(490–728) (0.03 mmol/L) in the cell; 18 injections of 2 μL; repeated 3 times.
Assay [2] has the same target. Briefly: ITC; SNX11-degron peptide titrated into CUL2^ZYG11B that was pre-incubated with the ORF10 peptide (pre-formed ZYG11B/ORF10 N5 complex).

Sequence of CUL2^ZYG11B (residues 490–728) (human) (Q9C0D3 490-728): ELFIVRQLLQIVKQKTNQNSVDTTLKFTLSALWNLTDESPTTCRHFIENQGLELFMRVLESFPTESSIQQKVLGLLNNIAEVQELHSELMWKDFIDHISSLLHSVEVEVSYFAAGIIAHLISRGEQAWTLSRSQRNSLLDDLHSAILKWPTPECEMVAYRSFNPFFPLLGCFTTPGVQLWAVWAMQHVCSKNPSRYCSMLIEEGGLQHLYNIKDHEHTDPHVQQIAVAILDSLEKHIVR

SARS-CoV-2 ORF10 N3 peptide registered a Kd in assay [1] of 14.5 µM.
On the same count and under the same terms, the result for SARS-CoV-2 ORF10 N4 peptide reads 5.18 µM.
Regarding SNX11-degron peptide, the fold lower affinity for CUL2^ZYG11B pre-bound to the ORF10 peptide than for CUL2^ZYG11B alone in assay [2] worked out at 13 fold.

The record behind these values is paper PMC11413682.
